Experimental data taken from patent publication US20140193915, “COMPOSITIONS AND METHODS FOR CUSTOM SITE-SPECIFIC DNA RECOMBINASES” (Monsanto Technology, LLC, published 2014).

T1: sN-TALER IV-5 (synthetic)
T1 chain: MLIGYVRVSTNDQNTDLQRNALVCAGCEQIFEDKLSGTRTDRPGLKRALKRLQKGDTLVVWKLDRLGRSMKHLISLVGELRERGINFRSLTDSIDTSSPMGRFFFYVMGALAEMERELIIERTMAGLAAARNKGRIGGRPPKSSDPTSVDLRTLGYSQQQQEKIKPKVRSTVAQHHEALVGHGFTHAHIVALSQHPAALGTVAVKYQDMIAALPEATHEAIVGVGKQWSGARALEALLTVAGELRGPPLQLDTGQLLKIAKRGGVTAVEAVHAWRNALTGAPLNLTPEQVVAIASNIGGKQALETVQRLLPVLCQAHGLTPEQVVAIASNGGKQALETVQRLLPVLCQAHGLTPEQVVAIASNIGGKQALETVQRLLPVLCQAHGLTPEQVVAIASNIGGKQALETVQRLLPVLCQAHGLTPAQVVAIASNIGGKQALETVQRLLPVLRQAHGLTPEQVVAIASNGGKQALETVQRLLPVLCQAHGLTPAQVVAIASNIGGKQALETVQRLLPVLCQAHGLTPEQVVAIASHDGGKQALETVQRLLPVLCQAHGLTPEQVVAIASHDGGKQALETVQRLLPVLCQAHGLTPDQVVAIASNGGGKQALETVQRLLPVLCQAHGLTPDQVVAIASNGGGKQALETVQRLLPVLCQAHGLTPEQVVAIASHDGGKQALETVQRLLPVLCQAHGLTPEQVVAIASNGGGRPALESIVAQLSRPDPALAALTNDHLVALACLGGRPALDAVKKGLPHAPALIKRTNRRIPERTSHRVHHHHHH

T2: sN-TALER IIa-1 (synthetic)
T2 chain: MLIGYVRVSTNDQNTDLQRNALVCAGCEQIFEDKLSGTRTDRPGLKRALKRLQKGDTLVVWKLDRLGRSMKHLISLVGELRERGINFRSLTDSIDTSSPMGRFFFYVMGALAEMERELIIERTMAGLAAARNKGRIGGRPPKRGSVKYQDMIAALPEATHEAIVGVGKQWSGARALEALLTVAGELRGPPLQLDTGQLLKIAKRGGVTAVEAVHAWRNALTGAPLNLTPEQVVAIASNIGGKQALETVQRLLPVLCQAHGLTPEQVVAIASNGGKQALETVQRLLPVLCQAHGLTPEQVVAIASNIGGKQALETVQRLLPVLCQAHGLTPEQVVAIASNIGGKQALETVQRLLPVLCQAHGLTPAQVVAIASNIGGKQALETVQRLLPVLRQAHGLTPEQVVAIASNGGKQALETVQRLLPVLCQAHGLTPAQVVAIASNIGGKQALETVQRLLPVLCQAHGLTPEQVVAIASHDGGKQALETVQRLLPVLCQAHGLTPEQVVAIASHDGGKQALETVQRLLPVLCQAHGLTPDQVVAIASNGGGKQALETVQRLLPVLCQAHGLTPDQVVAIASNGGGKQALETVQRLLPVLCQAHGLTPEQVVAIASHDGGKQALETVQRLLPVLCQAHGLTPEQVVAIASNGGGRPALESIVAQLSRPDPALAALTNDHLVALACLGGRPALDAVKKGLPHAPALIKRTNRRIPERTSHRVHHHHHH

T3: sN-TALER IIb-1 (synthetic)
T3 chain: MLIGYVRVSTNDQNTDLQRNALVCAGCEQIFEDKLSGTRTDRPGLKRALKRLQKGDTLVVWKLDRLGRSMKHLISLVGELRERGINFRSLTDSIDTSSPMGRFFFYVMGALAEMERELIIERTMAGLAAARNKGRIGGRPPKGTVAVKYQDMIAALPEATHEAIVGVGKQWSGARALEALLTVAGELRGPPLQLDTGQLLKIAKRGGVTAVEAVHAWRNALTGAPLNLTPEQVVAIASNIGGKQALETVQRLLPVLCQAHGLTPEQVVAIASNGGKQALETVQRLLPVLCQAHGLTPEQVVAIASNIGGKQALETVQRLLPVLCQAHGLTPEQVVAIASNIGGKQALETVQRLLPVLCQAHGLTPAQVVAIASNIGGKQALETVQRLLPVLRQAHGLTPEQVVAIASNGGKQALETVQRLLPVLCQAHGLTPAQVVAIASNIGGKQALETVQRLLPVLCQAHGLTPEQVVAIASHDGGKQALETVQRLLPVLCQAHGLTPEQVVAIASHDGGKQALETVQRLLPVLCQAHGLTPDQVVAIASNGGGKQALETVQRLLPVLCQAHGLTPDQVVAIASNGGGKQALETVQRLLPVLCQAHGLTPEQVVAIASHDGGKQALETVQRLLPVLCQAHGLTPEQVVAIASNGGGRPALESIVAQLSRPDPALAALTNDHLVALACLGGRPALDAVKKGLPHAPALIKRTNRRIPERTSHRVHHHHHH

B1: Gin20TALE+0 (dsDNA)
DNA 1: AGAAGGTATTTATATCCAAAACCATGGTTTACAGTATAAATACCTTCT
DNA 2: AGAAGGTATTTATACTGTAAACCATGGTTTTGGATATAAATACCTTCT
B2: Gin18TALE+0 (dsDNA)
DNA 1: AGAAGGTATTTATACCAAAACCATGGTTTACATATAAATACCTTCT
DNA 2: AGAAGGTATTTATATGTAAACCATGGTTTTGGTATAAATACCTTCT

Columns and labels:
Test in all cases: cell_activity; E. coli
Details in all cases: tags: 6-His
[1] = target: T1, sN-TALER IV-5
In short: (§1)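 DH5alpha cells co-transformed (heat shock or electroporation) with N-TALER expression and reporter plasmids at ~1:1 mass ratio; reporter alone as control. Plated on chloramphenicol/kanamycin/X-gal, grown 37° C. for 18 to 36 hours; recombination scored by colony colour.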

[2] = target: T2, sN-TALER IIa-1
In short: as §1

[3] = target: T3, sN-TALER IIb-1
In short: as §1

Binder	activity [1] [score]	activity [2] [score]	activity [3] [score]
B1	4.5		
B2		4	3
